According to patent publication EP4755449A2 (CHUGAI SEIYAKU KABUSHIKI KAISHA, dated 2026):
Values belong to the binder of their own block, whether it stands above or below them.

Columns and labels:
[1] = target: T1, human latent myostatin (human, UniProt O14793 25-266; O14793 267-375); experiment: SPR, dissociation phase at pH5.8
T1 construct: non-covalent complex of two propeptides and the mature homodimer; also called human myostatin latent form
T1 sequence 1: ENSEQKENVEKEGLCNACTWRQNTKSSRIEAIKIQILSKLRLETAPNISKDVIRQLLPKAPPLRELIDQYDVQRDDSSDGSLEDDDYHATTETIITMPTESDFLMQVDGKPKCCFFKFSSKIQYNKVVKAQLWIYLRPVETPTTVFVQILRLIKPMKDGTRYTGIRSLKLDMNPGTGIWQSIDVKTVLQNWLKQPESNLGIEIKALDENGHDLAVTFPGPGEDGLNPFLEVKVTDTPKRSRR
T1 sequence 2: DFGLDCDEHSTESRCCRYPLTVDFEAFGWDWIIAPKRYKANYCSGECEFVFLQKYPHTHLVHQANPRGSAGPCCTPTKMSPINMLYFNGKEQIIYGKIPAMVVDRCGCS

[2] = target: T1, human latent myostatin; experiment: SPR, dissociation phase at pH5.8; remark: listed apart in the source
[3] = target: T2, cynomolgus monkey latent myostatin (cynomolgus monkey, UniProt Q95J86 25-266; Q95J86 267-375, limits assumed); experiment: SPR 37C
T2 construct: also called cyno latent myostatin
T2 sequence 1: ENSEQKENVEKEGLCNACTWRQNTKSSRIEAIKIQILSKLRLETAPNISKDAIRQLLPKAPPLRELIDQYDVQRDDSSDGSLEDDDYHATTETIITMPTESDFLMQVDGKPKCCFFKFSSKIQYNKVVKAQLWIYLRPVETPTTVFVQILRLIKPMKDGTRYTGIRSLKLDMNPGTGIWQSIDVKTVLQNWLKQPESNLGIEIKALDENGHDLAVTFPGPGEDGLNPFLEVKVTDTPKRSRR
T2 sequence 2: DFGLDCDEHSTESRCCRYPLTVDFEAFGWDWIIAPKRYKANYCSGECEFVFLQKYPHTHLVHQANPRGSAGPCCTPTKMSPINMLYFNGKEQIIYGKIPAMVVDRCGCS

[4] = target: T3, mouse latent myostatin (mouse, UniProt O08689 26-267; O08689 268-376); experiment: SPR 37C pH7.4
T3 sequence 1: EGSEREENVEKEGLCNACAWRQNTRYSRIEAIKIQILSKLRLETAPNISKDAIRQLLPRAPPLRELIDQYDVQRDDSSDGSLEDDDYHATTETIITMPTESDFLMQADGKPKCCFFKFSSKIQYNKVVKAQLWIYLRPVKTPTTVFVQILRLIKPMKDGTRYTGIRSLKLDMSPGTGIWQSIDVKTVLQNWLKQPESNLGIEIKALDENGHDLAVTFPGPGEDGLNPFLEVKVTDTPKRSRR
T3 sequence 2: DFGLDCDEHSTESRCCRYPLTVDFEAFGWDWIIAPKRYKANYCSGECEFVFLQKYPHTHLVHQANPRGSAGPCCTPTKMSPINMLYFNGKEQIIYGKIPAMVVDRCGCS

[5] = target: T1, human latent myostatin; experiment: SPR 37C pH7.4
[6] = target: T2, cynomolgus monkey latent myostatin; experiment: SPR 37C pH7.4; pH 7.4
[7] = target: T2, cynomolgus monkey latent myostatin; experiment: SPR 37C pH5.8; pH 5.8
[8] = target: T4, GST-hMSTN 141-241aa (human, UniProt A1C2U3 141-241 (Pongo pygmaeus entry)); experiment: Western blot
T4 construct: not shown: GST tag of pGEX4.1 vector
T4 sequence: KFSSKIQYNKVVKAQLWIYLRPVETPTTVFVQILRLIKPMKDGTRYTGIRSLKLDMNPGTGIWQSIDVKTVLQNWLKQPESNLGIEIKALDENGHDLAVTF

[9] = target: T5, GST-hMSTN 81-180aa (human, UniProt A1C2U3 81-180 (Pongo pygmaeus entry)); experiment: Western blot
T5 construct: not shown: GST tag of pGEX4.1 vector
T5 sequence: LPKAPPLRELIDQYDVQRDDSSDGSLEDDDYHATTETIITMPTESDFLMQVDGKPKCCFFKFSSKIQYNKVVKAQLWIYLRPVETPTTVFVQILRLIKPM

[10] = target: T6, GST-hMSTN 121-220aa (human, UniProt A1C2U3 121-220 (Pongo pygmaeus entry)); experiment: Western blot
T6 construct: not shown: GST tag of pGEX4.1 vector
T6 sequence: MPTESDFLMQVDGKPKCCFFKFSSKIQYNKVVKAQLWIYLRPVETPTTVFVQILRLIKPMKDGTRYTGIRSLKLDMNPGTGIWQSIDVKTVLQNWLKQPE

[11] = target: T7, GST-hMSTN 101-200aa (human, UniProt A1C2U3 101-200 (Pongo pygmaeus entry)); experiment: Western blot
T7 construct: not shown: GST tag of pGEX4.1 vector
T7 sequence: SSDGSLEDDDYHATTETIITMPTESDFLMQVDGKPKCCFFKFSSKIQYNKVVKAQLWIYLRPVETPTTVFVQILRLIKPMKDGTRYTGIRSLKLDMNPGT

[12] = target: T8, GST-hMSTN 61-160aa (human, UniProt O14793 61-160); experiment: Western blot
T8 construct: not shown: GST tag of pGEX4.1 vector
T8 sequence: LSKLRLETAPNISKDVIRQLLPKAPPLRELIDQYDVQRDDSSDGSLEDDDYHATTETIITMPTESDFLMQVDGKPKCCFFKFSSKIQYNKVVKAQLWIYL

[13] = target: T9, human Fc gamma RIIb extracellular domain, His-tagged (human, UniProt P31994 43-217); experiment: SPR 25C
T9 construct: also called FcgRIIb
T9 sequence: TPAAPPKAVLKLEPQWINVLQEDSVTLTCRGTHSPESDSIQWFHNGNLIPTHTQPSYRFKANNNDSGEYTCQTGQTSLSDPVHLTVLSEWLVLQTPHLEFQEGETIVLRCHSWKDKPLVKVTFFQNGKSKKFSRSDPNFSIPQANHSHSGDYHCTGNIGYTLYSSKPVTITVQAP

[14] = target: T10, human Fc gamma RIIaH extracellular domain, His-tagged (human, UniProt P12318 34-217); experiment: SPR 25C
T10 construct: also called FcgRIIaH; human Fc gamma RIIa (type H)
T10 sequence: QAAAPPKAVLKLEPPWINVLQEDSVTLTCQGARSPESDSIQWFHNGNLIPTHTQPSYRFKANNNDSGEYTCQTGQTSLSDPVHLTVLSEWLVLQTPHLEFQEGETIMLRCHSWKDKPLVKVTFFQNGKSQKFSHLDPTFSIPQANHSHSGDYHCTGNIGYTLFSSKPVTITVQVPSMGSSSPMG

[15] = target: T11, cyno Fc gamma RIIIaS extracellular domain, His-tagged (cynomolgus monkey, UniProt Q8SPW2 21-206 at identity 1.00)); experiment: SPR 25C
T11 construct: also called cynoFcgRIIIaS
T11 chain: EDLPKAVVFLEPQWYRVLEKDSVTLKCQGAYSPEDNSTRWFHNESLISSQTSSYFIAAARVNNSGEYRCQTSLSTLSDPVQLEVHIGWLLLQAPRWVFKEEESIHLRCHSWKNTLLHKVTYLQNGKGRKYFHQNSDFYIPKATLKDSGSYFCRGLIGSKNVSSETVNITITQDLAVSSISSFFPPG

[16] = target: T12, human Fc gamma RIIaR extracellular domain, His-tagged (human, UniProt P12318 34-217); experiment: SPR 25C
T12 construct: also called FcgRIIaR; human Fc gamma RIIa (type R)
T12 chain: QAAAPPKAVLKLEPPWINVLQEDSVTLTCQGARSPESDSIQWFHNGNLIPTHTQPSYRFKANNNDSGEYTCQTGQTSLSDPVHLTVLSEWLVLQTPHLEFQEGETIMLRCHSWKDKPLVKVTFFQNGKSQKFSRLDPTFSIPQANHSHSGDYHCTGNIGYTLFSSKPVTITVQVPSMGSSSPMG

[17] = target: T13, human Fc gamma RIIIaV extracellular domain, His-tagged (human, UniProt P08637 17-208); experiment: SPR 25C
T13 construct: also called FcgRIIIaV
T13 sequence (P08637 17-208 F176V): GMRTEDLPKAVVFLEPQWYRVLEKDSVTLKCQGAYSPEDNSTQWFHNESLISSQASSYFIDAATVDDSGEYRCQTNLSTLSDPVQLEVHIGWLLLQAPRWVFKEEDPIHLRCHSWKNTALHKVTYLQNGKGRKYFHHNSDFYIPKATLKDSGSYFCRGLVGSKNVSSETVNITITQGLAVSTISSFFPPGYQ

koff [1]: 0.00609 s⁻¹
fold faster dissociation rate at pH5.8 than Ab001 [2]: 200 fold
B1: Ab002 (M103205H001/M103202L000) (antibody, V domains shown)
VH: QVTLKESGPVLVKPTETLTLTCTVSGIDLSHYDISWVRQAPGKGLEWVGIISYAGSTYYASWAKGRLTISKDTSKNQVVLTMTNMDPVDTATYYCARGVPAYSTGGDLWGQGTLVTVSS
VL: DIVMTQSPATLSLSPGERATLSCQSSQSVYDNNWLSWFQQKPGQPPKLLIYWASTLASGVPSRFSGSGSGTDFTLTISSLQPEDAATYYCAGGYGGGLYAFGQGTKVEIKR
notes: variant of MS1032LO00-SG1

ratio of KD at pH 5.8/pH7.4 [3]: 229
Kd [4]: 0.272 nM
Kd [5]: 0.329 nM
Kd [6]: 0.354 nM
Kd [7]: 80.9 nM
B2: MS_M103205H1186-SG1/M103202L889-SK1 (antibody, human IgG1, kappa, V domains shown)
VH: QVTLKESGPVLVKPTETLTLTCTVSGIDLSHDDISWVRQAPGKGLEWVGIISYAGKKYYASWAKGRLTISKDTSKNQVVLTMTNMDPVDTATYYCARGVPAYSHGGDLWGQGTLVTVSS
VL: DIVMTQSPATLSLSPGERATLSCTSSQSVYHANWLSWFQQKPGQPPKLLIYWASTLAYGVPSRFSGSGSGTDFTLTISSLQPEDAATYYCAGGYGGGRYAFGQGTKVEIKR
notes: also called MS1032LO18-SG1

binding result [8]: no binding
binding result [9]: no binding
binding result [10]: no binding
binding result [11]: no binding
binding result [12]: no binding
B3: MST1572 (antibody, human IgG1, kappa, V domains shown)
VH: QSVEESGGRLVTPGTPLTLTCTVSGFSLSSYAMSWVRQAPGKGLEWIGIIYGVGSTYYASWAKGRFTISKTSTTVDLKIASPTTEDTATYFCARDDYGWGYTNLWGPGTLVTVSS
VL: QVLTQTPSSVSAAVGGTVTINCQSSQSVYNNNYLAWFQQKPGQPPKLLIYDASKLASGVPSRFKGSGSGTQFTLTISGVQCDDAATYYCQGSYYSSGWYRAFGGGTKVEIKR

binding result [13]: binds
binding result [14]: binds
binding result [15]: binds
B4: M103205H795-MY009/M103202L889-SK1 (antibody, human IgG1, kappa)
heavy: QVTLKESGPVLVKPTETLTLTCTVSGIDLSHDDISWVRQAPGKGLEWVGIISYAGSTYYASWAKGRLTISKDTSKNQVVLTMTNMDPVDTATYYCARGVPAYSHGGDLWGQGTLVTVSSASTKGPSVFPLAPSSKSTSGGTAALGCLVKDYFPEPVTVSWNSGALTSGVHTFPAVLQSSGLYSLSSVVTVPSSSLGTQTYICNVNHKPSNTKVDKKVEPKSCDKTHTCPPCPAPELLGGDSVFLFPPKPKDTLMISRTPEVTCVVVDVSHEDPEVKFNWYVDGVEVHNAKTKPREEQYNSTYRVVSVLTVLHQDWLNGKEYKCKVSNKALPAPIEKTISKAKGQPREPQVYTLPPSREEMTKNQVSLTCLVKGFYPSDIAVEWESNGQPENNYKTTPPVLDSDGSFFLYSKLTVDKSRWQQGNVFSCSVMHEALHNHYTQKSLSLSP
light: DIVMTQSPATLSLSPGERATLSCTSSQSVYHANWLSWFQQKPGQPPKLLIYWASTLAYGVPSRFSGSGSGTDFTLTISSLQPEDAATYYCAGGYGGGRYAFGQGTKVEIKRTVAAPSVFIFPPSDEQLKSGTASVVCLLNNFYPREAKVQWKVDNALQSGNSQESVTEQDSKDSTYSLSSTLTLSKADYEKHKVYACEVTHQGLSSPVTKSFNRGEC
notes: SG1 with P238D (EU); also called MS1032LO06-MY009; copies: 2 + 2

relative binding [16]: 0 parent B3=100
relative binding [17]: 0 parent B3=100
B5: GpH7-B3 G237D/GpL16-k0 (antibody, human IgG1, kappa)
heavy: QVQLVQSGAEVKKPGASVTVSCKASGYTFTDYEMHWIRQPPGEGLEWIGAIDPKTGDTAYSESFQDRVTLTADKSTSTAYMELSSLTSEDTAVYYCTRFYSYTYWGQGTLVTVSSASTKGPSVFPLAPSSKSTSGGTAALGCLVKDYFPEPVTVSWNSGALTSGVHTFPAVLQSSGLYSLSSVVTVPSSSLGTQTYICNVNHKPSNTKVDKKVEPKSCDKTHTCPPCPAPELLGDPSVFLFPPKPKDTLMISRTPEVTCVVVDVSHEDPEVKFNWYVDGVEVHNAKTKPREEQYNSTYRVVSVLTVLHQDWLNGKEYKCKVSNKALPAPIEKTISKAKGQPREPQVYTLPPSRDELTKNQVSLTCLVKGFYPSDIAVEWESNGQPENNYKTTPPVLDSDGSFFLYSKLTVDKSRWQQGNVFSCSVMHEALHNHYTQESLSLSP
light: DIVMTQSPLSLPVTPGEPASISCQASESLVHSNRNTYLHWYLQKPGQSPQLLIYKVSNRFSGVPDRFSGSGSGTDFTLKISRVEAEDVGVYYCSQNTHVPPTFGQGTKVEIERTVAAPSVFIFPPSDEQLKSGTASVVCLLNNFYPREAKVQWKVDNALQSGNSQESVTEQDSKDSTYSLSSTLTLSKADYEKHKVYACEVTHQGLSSPVTKSFNRGEC
notes: copies: 2 + 2

binding result [8]: no binding
binding result [9]: no binding
binding result [10]: no binding
binding result [11]: no binding
binding result [12]: no binding
B6: MST1538 (antibody, human IgG1, kappa, V domains shown)
VH: QSLEESGGGLVKPGGTLTLTCKASGIDFSSYYYMCWVRQAPGKGLEWIACIYAGISGSTYYASWAKGRFTISKTSSTTVTLQMTSLTAADTATYFCARDPYHFDYGSLWGPGTLVTVSS
VL: ALVMTQTPASVSAAVGGTVTINCQASQSVYGGNELSWYQQEPGQPPKLLIYSASKLASGVPSRFKGSGSGTQFTLTISGVQCDDAAAYYCAGYRTYSDDDNAFGGGTKVEIKR
